Patent publication US20040038249A1, “Inducible expression systems employing PPAR transcriptional activators” (priority 2002, published 2004)

What was measured:
[1] = form not soluble in water, doses between 5 and 50 mg/kg, for example 30 mg/kg; cited from earlier work
[2] = tested on: PPAR Response Elements (PPREs) of wt origin or mutated response sequence (CYP4A6m1); assay: Luciferase reporter cotransfection with PPAR polypeptide and response element plasmids; format: cell-based, murine; settings: for luciferase activity from response elements: C2C12 murine myoblasts, untreated or treated with BRL49653 PPARγ ligand, panel of wt and mutated response elements
From the text: FIG. 2: Comparison of PPAR polypeptides derived from human PPARγ2 receptor. C2C12 murine myoblasts were cotransfected with a mixture of 3 different plasmids: (i) a plasmid expressing the wt or a mutated hPPARγ2; (ii) a plasmid in which the luc+ gene expression is driven by an inducible target sequence made of multiple PPAR Response Elements (PPREs) of wt origin (CYP4A6, CYP4A1 and HMG) or mutated response sequence (CYP4A6m1=SEQ ID No.: 26, CYP4A6m2=control with sequence 5′ GAACT AGGGCA A AGAACA 3′ (SEQ ID No.: 41), CYP4 μm=SEQ ID No.: 22, and HMGm=SEQ ID No.: 34); and (iii) a plasmid expressing the Renilla luciferase gene as an internal control of transfection efficiency. Measurement of luciferase activity for untreated cells (white bars) or cells treated with the BRL49653 PPARγ ligand (grey bars) is shown for each response element (left Y-axis). The relative induction level (x fold induction) resulting from ligand treatment is also shown (dots and right Y-axis)). Nomenclature for the PPAR amino acid sequences used refers to the first, second, and fifth (bolded) amino acid in the P-box of the Zinc finger domain, where wild type is EGCKG (see box in FIG. 1, panel B).
FIG. 3: DNA-binding specificity of the GSV mutant. C2C12 murine myoblasts were cotransfected with a mixture of 3 different plasmids: (i) a plasmid expressing the wt EGG or the GSV mutated hPPARγ2; (ii) a plasmid in which the luc+ gene expression is driven by an inducible target sequence made of multiple wt PPREs (apoAII, BIF, PPREcon, CYP4A1, CYP4A6, FABP, HMG and MEP cloned in sense (-S) or anti-sense (-AS) orientation) or the mutated response element (noted as “m” sequences in FIG. 6, such as CYP4A6m1=SEQ ID No.: 26); and (iii) a plasmid expressing the Renilla luciferase gene as an internal control of transfection efficiency. Expression levels for untreated cells (white) or cells treated with the BRL49653 PPARγ ligand (grey) are shown in left Y-axis and the relative induction (x fold induction) due to ligand treatment is shown in right Y-axis (dots).
One skilled in the art is familiar with protocols for transfecting plasmids into cell or infecting cells with virus. As an example, murine myoblasts (C2C12; ATCC: CRL1772) and human HEK293 (ATCC: CRL1573) cells are seeded in 24-well plates (7.5×10^4 cells per well) and grown for 24 h in DMEM supplemented with 10% FCS. Cells are washed in DMEM without serum and transfected in triplicate by adding to the cells 0.5 ml of OptiMEM mixed with various quantities of reporter gene (AP or luc) encoding plasmid, supplemented to 500 ng with a carrier plasmid and LipofectAMINE (2 μl for C2C12, 3 μl for HEK293). Five hours later, the medium containing the DNA and the LipofectAMINE is replaced by 1 ml of DMEM supplemented with FCS (2% for C2C12, 10% for HEK293). […]

| Molecule | plasma concentration [1] | luciferase activity from response elements [2] | relative induction level resulting from ligand treatment ([2]; C2C12, BRL49653 treatment, CYP4A6m1 response element) | luciferase activity from response elements ([2]; listed as PPARγ2 (GSV)) |
| --- | --- | --- | --- | --- |
| CN(CCOc1ccc(CC2SC(=O)NC2=O)cc1)c1ccccn1 (centres unmarked) [BRL49653, rosiglitazone] | about 15 μg/ml | – | – | – |
| GSG: human PPARγ2 with GSCKG substitutions in the P-box (SEQ ID NO: 7) (protein, PPAR gamma 2 recombinant polypeptide comprising GSCKG in Zinc finger domain) MGETLGDSPIDPESDSFTDTLSANISQEMTMVDTEMPFWPTNFGISSVDLSVMEDHSHSFDIKPFTTVDFSSISTPHYEDIPFTRTDPVVADYKYDLKLQEYQSAIKVEPASPPYYSEKTQLYNKPHEEPSNSLMAIECRVCGDKASGFHYGVHACGSCKGFFRRTIRLKLIYDRCDLNCRIHKKSRNKCQYCRFQKCLAVGMSHNAIRFGRMPQAEKEKLLAEISSDIDQLNPESADLRALAKHLYDSYIKSFPLTKAKARAILTGKTTDKSPFVIYDMNSLMMGEDKIKFKHITPLQEQSKEVAIRIFQGCQFRSVEAVQEITEYAKSIPGFVNLDLNDQVTLLKYGVHEIIYTMLASLMNKDGVLISEGQGFMTREFLKSLRKPFGDFMEPKFEFAVKFNALELDDSDLAIFIAVIILSGDRPGLLNVKPIEDIQDNLLQALELQLKLNHPESSQLFAKLLQKMTDLRQIVTEHVQLLQVIKKTETDMSLHPLLQEIYKDLY | – | particularly strong and selective | – | – |
| GSV: human PPARγ2 with GSCKV substitutions in the P-box of the Zinc finger domain (SEQ ID NO: 8) (protein, PPAR gamma 2 recombinant polypeptide comprising GSCKV in Zinc finger domain) MGETLGDSPIDPESDSFTDTLSANISQEMTMVDTEMPFWPTNFGISSVDLSVMEDHSHSFDIKPFTTVDFSSISTPHYEDIPFTRTDPVVADYKYDLKLQEYQSAIKVEPASPPYYSEKTQLYNKPHEEPSNSLMAIECRVCGDKASGFHYGVHACGSCKVFFRRTIRLKLIYDRCDLNCRIHKKSRNKCQYCRFQKCLAVGMSHNAIRFGRMPQAEKEKLLAEISSDIDQLNPESADLRALAKHLYDSYIKSFPLTKAKARAILTGKTTDKSPFVIYDMNSLMMGEDKIKFKHITPLQEQSKEVAIRIFQGCQFRSVEAVQEITEYAKSIPGFVNLDLNDQVTLLKYGVHEIIYTMLASLMNKDGVLISEGQGFMTREFLKSLRKPFGDFMEPKFEFAVKFNALELDDSDLAIFIAVIILSGDRPGLLNVKPIEDIQDNLLQALELQLKLNHPESSQLFAKLLQKMTDLRQIVTEHVQLLQVIKKTETDMSLHPLLQEIYKDLY | – | highly selective | highest induction levels | specific for the CYP4A6m1 |
